Experimental data published in PMC8643667, “TRF2 promotes dynamic and stepwise looping of POT1 bound telomeric overhang”.

Target: T1, POT1 (human, UniProt Q9NUX5 1-634)
T1 sequence: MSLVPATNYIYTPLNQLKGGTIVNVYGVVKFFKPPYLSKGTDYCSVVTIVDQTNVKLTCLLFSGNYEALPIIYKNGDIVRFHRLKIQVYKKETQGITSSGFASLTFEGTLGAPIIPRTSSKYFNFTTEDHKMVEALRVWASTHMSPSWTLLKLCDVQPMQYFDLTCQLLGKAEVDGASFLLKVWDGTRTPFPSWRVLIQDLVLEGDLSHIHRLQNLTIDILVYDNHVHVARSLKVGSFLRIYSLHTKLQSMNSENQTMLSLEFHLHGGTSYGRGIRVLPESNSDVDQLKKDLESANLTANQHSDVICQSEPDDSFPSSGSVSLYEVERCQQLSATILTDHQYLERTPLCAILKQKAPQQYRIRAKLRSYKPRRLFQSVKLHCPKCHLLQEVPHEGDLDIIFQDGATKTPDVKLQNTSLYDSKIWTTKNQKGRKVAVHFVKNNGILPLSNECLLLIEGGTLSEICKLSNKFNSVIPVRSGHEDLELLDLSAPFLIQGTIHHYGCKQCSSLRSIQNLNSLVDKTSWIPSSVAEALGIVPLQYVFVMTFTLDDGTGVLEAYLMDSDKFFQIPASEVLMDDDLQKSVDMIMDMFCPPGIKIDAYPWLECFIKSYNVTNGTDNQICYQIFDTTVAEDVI
Experiment: smFRET; FRET to 0.45; 10 mM Tris-HCl pH 7.5, 100 mM NaCl, 10% glycerol, oxygen scavenging system (trolox, glucose, glucose oxidase, catalase), ~23 C
Conditions: protein: recombinant; label: 3'Cy3 strand 1; Cy5 and 3'biotin strand 2; 3' overhang 24 nt; 18 bp duplex

B1: T6(TTAGGG)2T6 overhang (mixed)
DNA 1: TGGCGACGGCAGCGAGGCTTTTTTTTAGGGTTAGGGTTTTTT
DNA 2: GCCTCGCTGCCGTCGCCA
binding result: binds
